This note sets out measurements from the supplement of paper PMC9112550, “Optimization of the antimicrobial peptide Bac7 by deep mutational scanning” (BMC Biology, 2022).
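Note: peptides expressed intracellularly from a pBAD plasmid library in pooled LB shake-flask culture, induced with 0.3% L-arabinose, DNA abundance read by NGS, three biological replicates, DESeq2 with apeglm shrinkage.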

In the data set the test system is Escherichia coli TOP10. The data set is described as follows: shrunken log2 fold change of peptide-encoding DNA abundance (4.5 h post-induction vs induction); higher = less antimicrobial activity (less host growth inhibition). The conditions noted are these: time post-induction: 4.5 h; library: site-saturation at positions 5, 18, 19, 20.
On to RRIRWRPPRLPRPRPRPLTRPRP, for which the “shrunken log2 fold change” value amounted to 2.04.

RRIRCRPPRLPRPRPRPFVVPRP: the “shrunken log2 fold change” value was -0.633.

On to RRIRMRPPRLPRPRPRPFHPPRP, for which the “shrunken log2 fold change” value was -0.0444.

Take RRIRCRPPRLPRPRPRPSTCPRP: the “shrunken log2 fold change” value is -0.355.

In the case of RRIRQRPPRLPRPRPRPPEDPRP, the “shrunken log2 fold change” value is 0.0255.

On to RRIRFRPPRLPRPRPRPCFIPRP, for which the “shrunken log2 fold change” value was -0.564.

On to RRIRERPPRLPRPRPRPNNSPRP, for which the “shrunken log2 fold change” value is -0.693.

With RRIRGRPPRLPRPRPRPANAPRP, the “shrunken log2 fold change” value stood at 0.694.

As for RRIRFRPPRLPRPRPRPRDSPRP, the “shrunken log2 fold change” value was -0.051.

In the case of RRIRSRPPRLPRPRPRPVNCPRP, the “shrunken log2 fold change” value was -0.247.

On to RRIRTRPPRLPRPRPRPPKPPRP, for which the “shrunken log2 fold change” value was 0.304.

RRIRYRPPRLPRPRPRPLAPPRP: the “shrunken log2 fold change” value is 0.107.

Regarding RRIRLRPPRLPRPRPRPRRRPRP, the “shrunken log2 fold change” value turned out to be 0.395.

In the case of RRIRPRPPRLPRPRPRPNHFPRP, the “shrunken log2 fold change” value is -0.592.

With RRIRRRPPRLPRPRPRPRIYPRP, the “shrunken log2 fold change” value was -0.0573.

For RRIRVRPPRLPRPRPRPVASPRP, the “shrunken log2 fold change” value is 0.187.

Consider RRIRARPPRLPRPRPRPATIPRP, for which the “shrunken log2 fold change” value is 0.496.

Regarding RRIRFRPPRLPRPRPRPVCQPRP, the “shrunken log2 fold change” value is 0.109.

As for RRIRCRPPRLPRPRPRPSQHPRP, the “shrunken log2 fold change” value is -0.114.

For RRIRTRPPRLPRPRPRPLWCPRP, the “shrunken log2 fold change” value was -0.0967.

As for RRIRHRPPRLPRPRPRPLLVPRP, the “shrunken log2 fold change” value is -0.167.

Turning to RRIRIRPPRLPRPRPRPRAYPRP, the “shrunken log2 fold change” value is -0.315.

For the sequence RRIRGRPPRLPRPRPRPVWEPRP, the “shrunken log2 fold change” value came out at 0.761.

For RRIRRRPPRLPRPRPRPSIQPRP, the “shrunken log2 fold change” value was -0.0217.

In the case of RRIRWRPPRLPRPRPRPNSEPRP, the “shrunken log2 fold change” value is -0.071.

On to RRIRLRPPRLPRPRPRPSLIPRP, for which the “shrunken log2 fold change” value is -0.217.

Turning to RRIRQRPPRLPRPRPRPTQYPRP, the “shrunken log2 fold change” value is -0.0342.

Turning to RRIRIRPPRLPRPRPRPSSPPRP, the “shrunken log2 fold change” value was -0.746.

In the case of RRIRWRPPRLPRPRPRPAECPRP, the “shrunken log2 fold change” value is -0.0444.

Take RRIRMRPPRLPRPRPRPKTSPRP: the “shrunken log2 fold change” value was found to be 0.641.

RRIRGRPPRLPRPRPRPNHGPRP: the “shrunken log2 fold change” value was -0.178.

Consider RRIRDRPPRLPRPRPRPMVWPRP, for which the “shrunken log2 fold change” value was 0.851.

With RRIRIRPPRLPRPRPRPMAQPRP, the “shrunken log2 fold change” value amounted to 0.00812.

As for RRIRDRPPRLPRPRPRPYIRPRP, the “shrunken log2 fold change” value was -0.12.

With RRIRERPPRLPRPRPRPTPSPRP, the “shrunken log2 fold change” value was determined as 0.14.

Take RRIRERPPRLPRPRPRPNTLPRP: the “shrunken log2 fold change” value is -0.556.

Regarding RRIRSRPPRLPRPRPRPMYYPRP, the “shrunken log2 fold change” value was -0.468.

Turning to RRIRARPPRLPRPRPRPISCPRP, the “shrunken log2 fold change” value is 0.0406.

For RRIRWRPPRLPRPRPRPICKPRP, the “shrunken log2 fold change” value was -0.0506.

Consider RRIRQRPPRLPRPRPRPSYPPRP, for which the “shrunken log2 fold change” value was -0.857.

With RRIRFRPPRLPRPRPRPKIVPRP, the “shrunken log2 fold change” value was -0.207.

As to RRIRFRPPRLPRPRPRPVGFPRP, the “shrunken log2 fold change” value is -0.0508.

On to RRIRYRPPRLPRPRPRPSICPRP, for which the “shrunken log2 fold change” value is -0.0533.

In the case of RRIRFRPPRLPRPRPRPPQQPRP, the “shrunken log2 fold change” value is -0.0751.

Take RRIRERPPRLPRPRPRPWLHPRP: the “shrunken log2 fold change” value was -0.262.

Turning to RRIRIRPPRLPRPRPRPKVFPRP, the “shrunken log2 fold change” value amounted to 0.0502.

Take RRIRSRPPRLPRPRPRPPMTPRP: the “shrunken log2 fold change” value was found to be 0.243.

Regarding RRIRPRPPRLPRPRPRPQYSPRP, the “shrunken log2 fold change” value was -0.0482.

As to RRIRPRPPRLPRPRPRPKVTPRP, the “shrunken log2 fold change” value was determined as 0.0845.

As for RRIRLRPPRLPRPRPRPEMPPRP, the “shrunken log2 fold change” value came to 0.365.

As to RRIRMRPPRLPRPRPRPLPSPRP, the “shrunken log2 fold change” value came out at 0.942.

For the sequence RRIRNRPPRLPRPRPRPNNYPRP, the “shrunken log2 fold change” value is -1.01.

For RRIRSRPPRLPRPRPRPINTPRP, the “shrunken log2 fold change” value is -0.648.

Turning to RRIRGRPPRLPRPRPRPYYSPRP, the “shrunken log2 fold change” value was -0.207.

Consider RRIRVRPPRLPRPRPRPIAHPRP, for which the “shrunken log2 fold change” value is -0.126.

Take RRIRTRPPRLPRPRPRPTFQPRP: the “shrunken log2 fold change” value worked out at 0.0412.

For RRIRRRPPRLPRPRPRPGDHPRP, the “shrunken log2 fold change” value is 0.0619.

In the case of RRIRERPPRLPRPRPRPQMAPRP, the “shrunken log2 fold change” value was found to be 0.00684.

On to RRIRERPPRLPRPRPRPNNMPRP, for which the “shrunken log2 fold change” value is -0.713.

Turning to RRIRQRPPRLPRPRPRPTELPRP, the “shrunken log2 fold change” value is 0.124.

Regarding RRIRMRPPRLPRPRPRPGEDPRP, the “shrunken log2 fold change” value was found to be 0.118.

Consider RRIRYRPPRLPRPRPRPVSAPRP, for which the “shrunken log2 fold change” value is -0.332.

For RRIRYRPPRLPRPRPRPWGQPRP, the “shrunken log2 fold change” value worked out at 0.00911.

Regarding RRIRARPPRLPRPRPRPTTKPRP, the “shrunken log2 fold change” value was determined as 0.541.

For the sequence RRIRTRPPRLPRPRPRPTHIPRP, the “shrunken log2 fold change” value was -0.308.

With RRIRHRPPRLPRPRPRPDRSPRP, the “shrunken log2 fold change” value was -0.0222.

Take RRIRVRPPRLPRPRPRPHKYPRP: the “shrunken log2 fold change” value was -0.725.

On to RRIRSRPPRLPRPRPRPLWNPRP, for which the “shrunken log2 fold change” value was -0.25.

As for RRIRERPPRLPRPRPRPKRQPRP, the “shrunken log2 fold change” value was -0.0958.

Consider RRIRMRPPRLPRPRPRPYEDPRP, for which the “shrunken log2 fold change” value was 0.477.

RRIRARPPRLPRPRPRPGVLPRP: the “shrunken log2 fold change” value stood at 0.2.

Take RRIRWRPPRLPRPRPRPQEYPRP: the “shrunken log2 fold change” value is -0.0612.

As for RRIRQRPPRLPRPRPRPHMTPRP, the “shrunken log2 fold change” value is -0.391.

RRIRVRPPRLPRPRPRPGPVPRP: the “shrunken log2 fold change” value turned out to be 0.287.

As for RRIRQRPPRLPRPRPRPCWSPRP, the “shrunken log2 fold change” value was -0.08.

RRIRERPPRLPRPRPRPCPDPRP: the “shrunken log2 fold change” value is -0.0864.

On to RRIRNRPPRLPRPRPRPYQIPRP, for which the “shrunken log2 fold change” value was -0.0282.

On to RRIRIRPPRLPRPRPRPMRIPRP, for which the “shrunken log2 fold change” value was -0.0754.

Regarding RRIRYRPPRLPRPRPRPECSPRP, the “shrunken log2 fold change” value was -0.15.

RRIRGRPPRLPRPRPRPTAGPRP: the “shrunken log2 fold change” value is 1.15.

With RRIRNRPPRLPRPRPRPENMPRP, the “shrunken log2 fold change” value was -0.262.

Turning to RRIRKRPPRLPRPRPRPGYSPRP, the “shrunken log2 fold change” value was -0.447.

Consider RRIRCRPPRLPRPRPRPSQCPRP, for which the “shrunken log2 fold change” value was -0.548.

As for RRIRTRPPRLPRPRPRPGNHPRP, the “shrunken log2 fold change” value is -0.731.

In the case of RRIRWRPPRLPRPRPRPIRRPRP, the “shrunken log2 fold change” value was -0.00924.

In the case of RRIRIRPPRLPRPRPRPYNMPRP, the “shrunken log2 fold change” value is -1.39.

Consider RRIRSRPPRLPRPRPRPFIEPRP, for which the “shrunken log2 fold change” value is -0.285.

RRIRPRPPRLPRPRPRPIFGPRP: the “shrunken log2 fold change” value was 0.0562.

On to RRIRIRPPRLPRPRPRPIWVPRP, for which the “shrunken log2 fold change” value is -0.145.

For RRIRSRPPRLPRPRPRPMLYPRP, the “shrunken log2 fold change” value was 0.0575.

For RRIRARPPRLPRPRPRPNRQPRP, the “shrunken log2 fold change” value stood at 0.257.

In the case of RRIRWRPPRLPRPRPRPLLMPRP, the “shrunken log2 fold change” value was found to be 0.284.

In the case of RRIRRRPPRLPRPRPRPQQWPRP, the “shrunken log2 fold change” value worked out at 0.0704.

For RRIRCRPPRLPRPRPRPRTWPRP, the “shrunken log2 fold change” value came to 0.326.

Take RRIRERPPRLPRPRPRPSHAPRP: the “shrunken log2 fold change” value is -0.0485.

Turning to RRIRERPPRLPRPRPRPRWIPRP, the “shrunken log2 fold change” value was 1.93.

With RRIRARPPRLPRPRPRPWHWPRP, the “shrunken log2 fold change” value was determined as 0.209.

As to RRIRVRPPRLPRPRPRPYGLPRP, the “shrunken log2 fold change” value is -0.00518.

With RRIRERPPRLPRPRPRPRYPPRP, the “shrunken log2 fold change” value was determined as 0.00273.

Take RRIRLRPPRLPRPRPRPWICPRP: the “shrunken log2 fold change” value was -0.213.

In the case of RRIRCRPPRLPRPRPRPYLSPRP, the “shrunken log2 fold change” value is -0.577.

Turning to RRIRHRPPRLPRPRPRPDWLPRP, the “shrunken log2 fold change” value came out at 0.0441.

For the sequence RRIRHRPPRLPRPRPRPPDEPRP, the “shrunken log2 fold change” value turned out to be 0.43.

Regarding RRIRFRPPRLPRPRPRPNISPRP, the “shrunken log2 fold change” value was -0.503.

For the sequence RRIRQRPPRLPRPRPRPSLAPRP, the “shrunken log2 fold change” value is 0.404.

Turning to RRIRERPPRLPRPRPRPCACPRP, the “shrunken log2 fold change” value is -0.78.

Take RRIRMRPPRLPRPRPRPLPCPRP: the “shrunken log2 fold change” value came out at 0.372.

Take RRIRLRPPRLPRPRPRPDTMPRP: the “shrunken log2 fold change” value is -0.286.

On to RRIRRRPPRLPRPRPRPIIGPRP, for which the “shrunken log2 fold change” value is 0.327.

RRIRCRPPRLPRPRPRPCRWPRP: the “shrunken log2 fold change” value was -0.103.

Regarding RRIRGRPPRLPRPRPRPATNPRP, the “shrunken log2 fold change” value worked out at 0.766.

Turning to RRIRPRPPRLPRPRPRPDFMPRP, the “shrunken log2 fold change” value was -0.309.

For the sequence RRIRTRPPRLPRPRPRPFWTPRP, the “shrunken log2 fold change” value was -0.258.

Turning to RRIRNRPPRLPRPRPRPRHWPRP, the “shrunken log2 fold change” value was found to be 0.133.

Turning to RRIRERPPRLPRPRPRPIYDPRP, the “shrunken log2 fold change” value is -0.137.

For the sequence RRIRRRPPRLPRPRPRPLVYPRP, the “shrunken log2 fold change” value was -0.325.

With RRIRCRPPRLPRPRPRPMYAPRP, the “shrunken log2 fold change” value was 0.0401.

With RRIRMRPPRLPRPRPRPDSFPRP, the “shrunken log2 fold change” value was -0.0586.

As for RRIRVRPPRLPRPRPRPNIGPRP, the “shrunken log2 fold change” value is -0.0964.

Take RRIRERPPRLPRPRPRPIEVPRP: the “shrunken log2 fold change” value was -0.00196.

For RRIRNRPPRLPRPRPRPPLHPRP, the “shrunken log2 fold change” value was determined as 0.0562.

With RRIRNRPPRLPRPRPRPEKEPRP, the “shrunken log2 fold change” value was -0.159.

For RRIRRRPPRLPRPRPRPRKKPRP, the “shrunken log2 fold change” value amounted to 0.207.

On to RRIRIRPPRLPRPRPRPQCIPRP, for which the “shrunken log2 fold change” value was -0.37.

In the case of RRIRCRPPRLPRPRPRPQKAPRP, the “shrunken log2 fold change” value turned out to be 0.265.
